Reference: patent EP1040351B1 (Merck & Co., Inc., dated 2007)

Columns and labels:
[1] = molecular target: anti-Myc mAb-HRP conjugate (Invitrogen); test: competition ELISA: anti-Myc mAb-HRP on coated Myc peptide, 10x diluted c-ART-b sample as competitor
[2] = molecular target: T1, human melanocortin-4 receptor (human, UniProt P32245 1-332); test: displacement of 0.2 nM 125I-NDP-α-MSH from membranes of cells stably expressing human MC4R, filtration
T1 construct: whole, on cells; Membrane preparations of stably expressing cells; also called hMC4R; MC4R
T1 sequence (P32245 whole entry): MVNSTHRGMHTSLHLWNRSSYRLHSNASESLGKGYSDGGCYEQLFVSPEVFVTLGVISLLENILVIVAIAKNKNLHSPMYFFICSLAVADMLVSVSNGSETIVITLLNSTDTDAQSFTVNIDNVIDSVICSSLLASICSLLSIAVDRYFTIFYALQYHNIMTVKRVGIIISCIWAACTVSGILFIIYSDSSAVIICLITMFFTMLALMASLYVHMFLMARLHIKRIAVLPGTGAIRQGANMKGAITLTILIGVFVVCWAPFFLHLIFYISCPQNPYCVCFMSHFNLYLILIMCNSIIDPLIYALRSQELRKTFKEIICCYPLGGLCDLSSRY

[3] = molecular target: T2, human melanocortin-3 receptor (human, UniProt P41968 1-323); test: displacement of 0.2 nM 125I-NDP-α-MSH from membranes of cells stably expressing human MC3R, filtration
T2 construct: whole, on cells; Membrane preparations of stably expressing cells; also called hMC3R; MC3R
T2 sequence (P41968 whole entry): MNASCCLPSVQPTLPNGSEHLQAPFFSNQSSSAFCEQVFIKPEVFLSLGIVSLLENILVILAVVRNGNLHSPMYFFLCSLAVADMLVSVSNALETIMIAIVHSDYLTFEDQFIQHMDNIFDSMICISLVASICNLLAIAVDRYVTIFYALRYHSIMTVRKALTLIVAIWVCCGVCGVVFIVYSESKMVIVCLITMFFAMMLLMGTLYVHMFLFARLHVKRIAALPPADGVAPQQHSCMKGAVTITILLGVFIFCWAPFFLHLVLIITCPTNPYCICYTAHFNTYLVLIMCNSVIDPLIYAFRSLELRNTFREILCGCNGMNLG

Molecule	absorbance [1]	IC50 [2] [nM]	IC50 [3] [nM]
c-ART-b (from UniProt O00253 1-26; O00253 76-132) (ligand)	0.079	1.4	1.9
full-length human ART protein (ligand, UniProt O00253 21-132, looked up, not shown: small tags and cut ends, range 1-132; Recombinant ART as described by Fong et al. 1997 (ART cDNA in pcDNA3.1-Myc-His-A); also called full length ART; full-length ART protein) AQMGLAPMEGIRRPDQALLPELPGLGLRAPLKKTTAEQAEEDLLQEAQALAEVLDLQDREPRSSRRCVRLHESCLGQQVPCCDPCATCYCRFFNAFCYCRKLGTAMNPCSRT		0.5	1
